From US20060078875A1, “Genetic selection of small molecule modulators of protein-protein interactions” (The Penn State Research Foundation, priority 2004, published 2006)
Ends that are not written are not given here. Peptide text beside a SMILES is read from it.

Experiments:
avian ATIC (AICAR Tfase) = target: T1, avian ATIC (AICAR Tfase) (Gallus gallus, UniProt P31335); assay: AICAR Tfase assay
T1 sequence (P31335 1-593): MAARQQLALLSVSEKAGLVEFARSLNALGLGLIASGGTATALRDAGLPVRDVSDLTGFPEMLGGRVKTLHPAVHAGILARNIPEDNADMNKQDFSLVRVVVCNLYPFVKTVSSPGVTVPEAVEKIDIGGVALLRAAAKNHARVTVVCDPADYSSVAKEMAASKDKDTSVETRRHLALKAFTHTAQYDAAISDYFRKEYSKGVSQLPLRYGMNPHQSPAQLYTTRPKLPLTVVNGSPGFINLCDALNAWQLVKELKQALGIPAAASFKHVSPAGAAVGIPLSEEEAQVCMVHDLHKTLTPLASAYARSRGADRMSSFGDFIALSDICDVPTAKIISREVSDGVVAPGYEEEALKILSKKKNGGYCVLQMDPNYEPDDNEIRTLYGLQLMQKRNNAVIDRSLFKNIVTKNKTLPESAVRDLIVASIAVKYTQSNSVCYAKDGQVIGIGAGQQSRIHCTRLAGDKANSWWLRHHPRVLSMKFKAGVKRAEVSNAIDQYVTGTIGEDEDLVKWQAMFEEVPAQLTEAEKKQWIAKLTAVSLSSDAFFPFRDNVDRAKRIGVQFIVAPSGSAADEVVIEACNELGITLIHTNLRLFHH
Procedure: All assays were performed using a Varian Cary 100 Spectrometer. All reaction mixtures were 500 μl in volume and carried out in 1 cm pathlength quartz cuvettes at 25° C. The enzyme used in all of the inhibition studies was avian ATIC, fused to a N-terminal 6× histidine tag to facilitate purification. […] The peptides were dissolved in DMSO to a final concentration of 2.5 mM.
84 nM of ATIC, 50 μM of 10-f-THF and various quantities of inhibitor were mixed in the assay buffer (32.5 mM Tris-HCl, 25 mM KCl, pH 7.4). The mixture was incubated at 25° C. for 2 min before initiating the reaction by addition of 20 μM AICAR. The reaction was monitored by measuring the increase in absorbance due to formation of tetrahydrofolate at 298 nm.
The peptides were assumed to be competing with f-10-THF, which binds to ATIC and stabilizes its dimerization.

ATIC homodimer = target: T2, ATIC homodimer (Gallus gallus, UniProt P31335); assay: ATIC RTHS ranking by spotting serial dilutions on selective media; format: cell-based; details: cyclic peptides in order of biological activity (1 = most active)
T2 construct: expressed in transfected cells; host or cells: E. coli RTHS strain with the ATIC fusion integrated on the chromosome
T2 sequence (P31335 1-593): T1 sequence (P31335 1-593)
Procedure: ATIC was cloned as a fusion with the bacteriophage 434 repressor DNA binding domain (into pTHCP16, FIG. 1B) such that expression of the repressor-ATIC fusion placed under control of an isopropyl β-D-thiogalactoside (IPTG) inducible promoter. […] In order to improve selection conditions, a new RTHS strain was constructed by integrating the ATIC fusion onto the chromosome. The level of IPTG giving optimal repression was determined to be 50 μM by β-galactosidase assays.
The first SICLOPPS library transformed into the selection strain encoded a hexapeptide with five random residues and a cysteine nucleophile. Approximately 10^7 transformants were plated onto histidine-free minimal media supplemented with arabinose, (inducer for SICLOPPS) 3-amino-1,2,4-triazole (3-AT, competitive inhibitor of HIS3 product) and kanamycin at a density of 10^6 per plate (100×15 mm). The plates were incubated until colonies were readily visible (approximately one in 10^5). A second library encoding an octapeptide with five random residues and an invariable SGW motif was also tested (not shown). Around 200 colonies were picked and screened for arabinose dependent growth advantage and IPTG dependent inhibition of growth to eliminate false positives. The expected phenotype was further confirmed by isolating and retransforming the selected SICLOPPS plasmids into the selection strain. The 14 remaining cyclic peptides were then ranked for activity by spotting serial dilutions of the corresponding cells onto selective media, allowing the conferred growth advantage to be compared at each dilution level.
SICLOPPS libraries were transformed into E. coli strains containing integrated reporter and repressor constructs. Transformants were washed with minimal media A and plated on minimal media A supplemented with 13 μM L-(+)-arabinose, 2.5 mM 3-amino-1,2,4-triazole, 25 μM kanamycin and 50 μM IPTG. After incubation at 37° C. for 3-4 days, surviving colonies were restreaked onto the same media with and without arabinose. Plasmids from selected strains whose growth depended on the presence of arabinose were retransformed into the original selection strain and checked for phenotype retention. The variable insert regions on SICLOPPS plasmids were PCR-amplified, and their DNA sequence determined.

ribonucleotide reductase = target: T3, ribonucleotide reductase (Mus musculus, UniProt P07742+P11157); assay: RTHS β-galactosidase (lacZ) assay, ribonucleotide reductase fusion in strain SNS126; format: cell-based, murine; details: for Effect on the lacZ reporter upon arabinose induction: arabinose induction of peptide expression; for Effect on the lacZ reporter upon arabinose induction / lacZ repression relief: 100 μM IPTG; for lacZ repression relief: background level of peptide expression
T3 construct: expressed in transfected cells; host or cells: E. coli strain SNS126 (integrated via pAH68)
T3 sequence (P07742 1-792): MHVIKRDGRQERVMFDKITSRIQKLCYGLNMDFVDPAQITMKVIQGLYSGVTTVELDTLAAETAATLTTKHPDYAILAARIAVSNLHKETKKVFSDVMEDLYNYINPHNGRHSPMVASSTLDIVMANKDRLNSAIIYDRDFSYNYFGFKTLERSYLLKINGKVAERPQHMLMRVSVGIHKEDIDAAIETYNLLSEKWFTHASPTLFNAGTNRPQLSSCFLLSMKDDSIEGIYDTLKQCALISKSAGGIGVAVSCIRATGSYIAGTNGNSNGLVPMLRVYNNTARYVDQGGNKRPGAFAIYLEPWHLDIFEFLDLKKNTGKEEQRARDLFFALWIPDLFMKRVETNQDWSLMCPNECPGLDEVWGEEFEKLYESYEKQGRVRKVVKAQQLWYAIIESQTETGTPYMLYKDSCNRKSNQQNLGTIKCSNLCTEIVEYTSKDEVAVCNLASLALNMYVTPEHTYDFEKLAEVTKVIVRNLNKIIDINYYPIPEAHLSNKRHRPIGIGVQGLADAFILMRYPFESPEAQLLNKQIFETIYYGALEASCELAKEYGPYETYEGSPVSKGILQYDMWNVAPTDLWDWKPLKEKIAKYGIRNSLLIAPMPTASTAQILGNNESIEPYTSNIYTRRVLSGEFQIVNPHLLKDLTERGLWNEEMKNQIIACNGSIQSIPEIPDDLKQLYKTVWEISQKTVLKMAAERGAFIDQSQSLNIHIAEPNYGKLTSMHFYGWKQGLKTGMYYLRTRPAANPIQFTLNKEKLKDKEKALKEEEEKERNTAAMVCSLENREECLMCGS
T3 sequence (P11157 1-390): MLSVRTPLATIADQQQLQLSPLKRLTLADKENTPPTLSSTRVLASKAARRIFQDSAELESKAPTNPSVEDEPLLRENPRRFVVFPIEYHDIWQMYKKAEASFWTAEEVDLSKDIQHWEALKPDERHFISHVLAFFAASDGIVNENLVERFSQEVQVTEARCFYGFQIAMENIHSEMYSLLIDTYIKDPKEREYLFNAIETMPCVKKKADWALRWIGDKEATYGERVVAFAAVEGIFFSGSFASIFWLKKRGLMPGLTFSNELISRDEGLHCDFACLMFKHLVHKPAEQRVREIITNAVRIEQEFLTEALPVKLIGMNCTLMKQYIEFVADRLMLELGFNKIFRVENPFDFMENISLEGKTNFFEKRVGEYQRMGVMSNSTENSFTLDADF
Text: FIG. 4 has two graphs (A and B) of β-galactosidase assays showing the effect of linear peptide inhibitors on the oligomeric state of HIV-1 protease and ribonucleotide reductase.
Positive (unrepressed strain) and negative (SICLOPPS control plasmid) controls are provided as reference points. […] FIG. 7C is a graph of competition ELISA results that compare the binding affinity of the four linear peptides with P8 control. FIG. 7D illustrates an exemplary solid phase synthesis of cyclic peptides. First, an activated disulfide resin is prepared through the protection of the thiol group of 3-mercaptopropionic acid, followed by coupling to an amino-PEGA resin. Next, a linear peptide is attached via a cysteine residue and cyclized with 1-ethyl-3-(3′-dimethylaminopropyl)carbodiimide (EDC) and 1-hydroxy-7-azabenzotriazole (HOAt) in DMF. Finally, reductive cleavage with tris-2-carboxyethylphosphine (TCEP) releases the cyclized peptide.
pTHCP30. […] ribonucleotide reductase subunit R1 was PCR amplified from a Bacuolovirus expression plasmid [Caras et al. (1985) J. Biol. Chem. 260:7015-7022] and cloned into SalI and SacI sites on pTHCP14, and subunit R2 was PCR amplified from pET3a-R2 and cloned onto pTHCP14-R1 plasmid at XhoI and KpnI sites [Mann et al. (1991) Biochemistry 30:1939-1947].
Overlapping oligonucleotides encoding […] (methionine plus eight R2 subunit C-terminal residues) (SEQ ID:15) were cloned into NcoI and XbaI sites on arabinose expression plasmid pAR [Perez-Perez et al. (1995) Gene 158:141-142].
Towards this goal, both enzyme complexes were probed with known linear peptidic inhibitors. These peptides are a C-terminal hexapeptide (FIG. 4A, pHIV16) for HIV protease that inhibits the essential β-sheet interactions [Schramm al. (1996) Antiviral Res. 30:155-170], and a heptapeptide for ribonucleotide reductase (pTHCP35, FIG. 4B) that competes with binding between subunits mR1 and mR2 [Yang et al. (1990) FEBS Lett. 272:61-64].
To address non-specific effects of selectants on host growth rates, three of the selective peptides (RR93, RR127, RR130) and the less discriminating RR133 were subjected to quantitative expression studies using the lacZ reporter of the RTHS. […] These studies necessitated in vitro analysis to decipher the inhibition mechanism of these four selectants.

[1] = target: T4, ribonucleotide reductase large subunit (mR1) (Mus musculus, UniProt P07742); assay: Immobilized peptide binding/competition ELISA with mR1; parameters: species or system murine; details: P8 immobilized on maleimide plates
T4 construct: made in house; host or cells: E. coli BL21(λDE3) Rosetta, pET28a-MR1
T4 sequence (P07742 1-792): T3 sequence (P07742 1-792)
Procedure: (§1) FIG. 8B provides the results of an immobilized P8 ELISA.
(§2) Two variations of solid phase binding assays were used for analyzing the binding of peptide inhibitors to ribonucleotide reductase subunits: i) protein competition ELISA where peptides were competing with mR1 for binding to immobilized mR2, ii) binding and competition ELISA with covalently immobilized ligands. In general, the solid phase assays were performed in microtiter plates (MaxiSorp, Nunc) or strip units (Reacti-Bind™ Maleimide Activated Clear Strip Plates, Pierce) involving continuous agitation in Junior Orbit Shaker (Lab-line Instruments) at medium speed during all of the incubation steps. Sample volumes were 100 μL, unless specified otherwise. Following coating, blocking step was conducted by incubating pre-loaded wells with 5% bovine serum albumin in PBS for 1 h at room temperature. Wash procedures between any two successive incubations involved three washes with 200 μL of 0.5% Tween-20 in PBS (PBST), with the second wash involving a 5 min incubation. Detection of His-tagged proteins was performed with Ni·NTA-HRP conjugate (Qiagen) according to the manufacturer instructions.
(§3) Peptides (200 nmol per well) in 10% DMF/50 mM Tris·HCl (pH 7.5) with 1 mM TCEP were reacted for 2 h at room temperature with maleimide-derivatized polystyrene wells. The unreacted sites were blocked by incubating wells with 5 μM cysteine in 50 mM Tris·HCl (pH 7.5) for 30 min. Following washing and blocking steps, the wells were incubated with His-tagged mR1 or mR2 in the presence or absence of inhibitors. The retained protein was detected via Ni·NTA-HRP conjugate.
(§4) To determine the mechanism of action of the four identified sequences an alternative assay format was devised (FIG. 8A), where a peptide with a residual activity in its immobilized form can serve as a specific ligand for receptor capture in both binding and competition ELISA. The success of such an assay relies on both efficient peptide immobilization strategy and sufficient level of affinity, uncompromised by this display strategy. The peptide immobilization becomes feasible through implementation of a cysteine, a nucleophile used in splicing, as a universal chemoselective handle allowing covalent attachment strategy through a suitable electrophile. Chemoselective attachment of such peptides on appropriately derivatized surfaces should both display the small molecules for detection with a suitable protein receptor and allow binding site competition analysis, not unlike in a traditional immunosorbent format.

[2] = target: T5, ribonucleotide reductase small subunit (mR2) (Mus musculus, UniProt P11157); assay: Immobilized c-RR130 binding/competition ELISA with mR2; parameters: species or system murine; details: data not shown
T5 construct: made in house; host or cells: E. coli BL21(λDE3), pET28a-MR2
T5 sequence (P11157 1-390): T3 sequence (P11157 1-390)
Procedure: as §1, §2, §3, §4

## CSCC[C@@H]1NC(=O)[C@H](Cc2c[nH]c3ccccc23)NC(=O)CNC(=O)[C@H](CO)NC(=O)[C@H](C(C)C)NC(=O)[C@H](CC(N)=O)NC(=O)[C@H](CC(C)C)NC(=O)[C@H](Cc2ccccc2)NC1=O [c-151, M F L N V SGW] (cyclo(WMFLNVSG))
Avian ATIC (AICAR Tfase)
  Ki: 59 ± 6.8 µM
ATIC homodimer
  Activity Rank: 1

## GVRFF (cyclic, SICLOPPS-expressed; Ribonucleotide reductase inhibitor peptide) [RR127]
Ribonucleotide reductase
  Effect on the lacZ reporter upon arabinose induction: further enhanced
  lacZ repression relief: observable repression relief
[1]
  Disruption of / competition with immobilized P8·mR1 complex: none
[2]
  Competition with the c-RR130·mR2 complex: competed

## HRYVF (cyclic, SICLOPPS-expressed; Ribonucleotide reductase inhibitor peptide) [RR133]
Ribonucleotide reductase
  Effect on the lacZ reporter upon arabinose induction: further enhanced
  lacZ repression relief: observable repression relief
[1]
  Disruption of / competition with immobilized P8·mR1 complex: none
[2]
  Competition with the c-RR130·mR2 complex: competed

## M L L I V C (MLLIVC) [c-25]
ATIC homodimer
  Activity Rank: 3

## MSFTLDADF [pTHCP35, reference compound]
Ribonucleotide reductase; peptide co-expressed with ribonucleotide reductase fusion
  Repression of the lacZ reporter: relieved repression

## P V L L L C (PVLLLC) [c-26]
ATIC homodimer
  Activity Rank: 3

## R F F I C C (RFFICC; also: cyclic peptide, ring type not given here) [c-4]
ATIC homodimer
  Activity Rank: 2

## R I L Q L C (RILQLC) [c-8]
ATIC homodimer
  Activity Rank: 2

## R I L V L C (RILVLC) [c-5]
ATIC homodimer
  Activity Rank: 3

## RYFNVC [l-1a, RYFNVC]
Avian ATIC (AICAR Tfase)
  Ki: 142 ± 22.5 µM

## RYYNV (cyclo(RYYNV); not fully specified) [RR130]
Ribonucleotide reductase
  Effect on the lacZ reporter upon arabinose induction: arabinose-dependent repression
  lacZ repression relief: observable repression relief
[1]
  Disruption of / competition with immobilized P8·mR1 complex: none
[2]
  Competition with the c-RR130·mR2 complex: competed

## S M M V L C (SMMVLC) [c-15]
ATIC homodimer
  Activity Rank: 3

## T V L M F C (TVLMFC) [c-6]
ATIC homodimer
  Activity Rank: 3

## WMFLNVSG [l-151]
Avian ATIC (AICAR Tfase)
  Ki: 173 ± 28.4 µM

## YTWSY (cyclo(YTWSY); not fully specified) [RR93]
Ribonucleotide reductase
  Effect on the lacZ reporter upon arabinose induction: further enhanced
  lacZ repression relief: observable repression relief
